Results reported in paper PMC4714889, “Dissecting the Molecular Mechanism of Nucleotide-Dependent Activation of the KtrAB K^+ Transporter” (PLoS Biology, 2016).

B1: KtrAΔC, C-terminal domain truncated KtrA (tandem of two N-terminal KtrA domains) (domain or fragment, Bacillus subtilis)
chain: MGRIKNKQFAVIGLGRFGGSICKELHRMGHEVLAVDINEEKVNAYASYATHAVIANATEENELLSLGIRNFEYVIVAIGANIQASTLTTLLLKELDIPNIWVKAQNYYHHKVLEKIGADRIIHPEKDMGVKIAQSLSDENVLNYLEGSKQFAVIGLGRFGGSICKELHRMGHEVLAVDINEEKVNAYASYATHAVIANATEENELLSLGIRNFEYVIVAIGANIQASTLTTLLLKELDIPNIWVKAQNYYHHKVLEKIGADRIIHPEKDMGVKIAQSLSDENVLNY
notes: KtrA N-terminal domain, Bacillus subtilis, GenBank KIX81590.1, residues 1-144 (first copy of the tandem); linker between the two N-terminal domains; KtrA N-terminal domain, Bacillus subtilis, GenBank KIX81590.1, residues 7-144 (second copy of the tandem); Lacks KtrA residues 145-222 (the whole C-terminal domain); Forms an octameric ring counted in N-terminal domains; each chain carries two of …
B2: KtrA (wild type), cytosolic RCK ring protein of the KtrAB K+ transporter from Bacillus subtilis (natural protein, UniProt O32080 1-222, looked up)
chain: MGRIKNKQFAVIGLGRFGGSICKELHRMGHEVLAVDINEEKVNAYASYATHAVIANATEENELLSLGIRNFEYVIVAIGANIQASTLTTLLLKELDIPNIWVKAQNYYHHKVLEKIGADRIIHPEKDMGVKIAQSLSDENVLNYIDLSDEYSIVELLATRKLDSKSIIDLNVRAKYGCTILAIKHHGDICLSPAPEDIIREQDCLVIMGHKKDIKRFENEGM
notes: KtrA, RCK domain protein of the KtrAB K+ transporter, Bacillus subtilis, GenBank KIX81590.1; eluted and kept with ADP or ATP; also called full-length KtrA; wild type KtrA; source: E. coli BL21(DE3), purified (anion exchange, ADP-agarose, Superdex-S200)
B3: KtrB (wild type), membrane protein of the KtrAB K+ transporter from Bacillus subtilis (natural protein)
chain: MTLQKDKVIKWVRFTPPQVLAIGFFLTIIIGAVLLMLPISTTKPLSWIDALFTAASATTVTGLAVVDTGTQFTVFGQTVIMGLIQIGGLGFMTFAVLIVMILGKKIGLKERMLVQEALNQPTIGGVIGLVKVLFLFSISIELIAALILSIRLVPQYGWSSGLFASLFHAISAFNNAGFSLWPDNLMSYVGDPTVNLVITFLFITGGIGFTVLFDVMKNRRFKTFSLHTKLMLTGTLMLNAIAMLTVFILEYSNPGTLGHLHIVDKLWASYFQAVTPRTAGFNSLDFGSMREGTIVFTLLLMFIGAGSASTASGIKLTTFIVILTSVIAYLRGKKETVIFRRSIKYPIIIKALAVSVTSLFIVFLGIFALTITEQAPFLQIVFETFSAFGTVGLTMGLTPELTTAGKCIIIVIMFIGRIGPLTFVFSFAKTEQSNIRYPDGEVFTG
notes: KtrB, membrane protein of the KtrAB K+ transporter, Bacillus subtilis, GenBank KIX81591.1; In detergent (DDM or cymal-6), or reconstituted in E. coli polar lipid liposomes for the float-up; also called KtrB wt; wild-type KtrB; source: E. coli BL21(DE3), purified (DDM extraction, Talon resin, thrombin, Superdex-200); not shown: His tag, N-terminal, cleaved

Key:
[1] = biological target: B3; assay: SEC; size-exclusion purified KtrB (wild type or mutant) mixed with an excess of KtrA (wild type, KtrAC0 or KtrAΔC), run in the presence of ATP or ADP, in detergent; SDS-PAGE of the fractions; settings: both partners purified
[2] = biological target: the molecule itself; assay: crystal structure; KtrAΔCB with bound ADP, data to 6 Å, molecular replacement, 4-fold and 8-fold averaging, DEN refinement; crystals from 100 mM Tris-HCl pH 8.5, 18%–22% PEG400, 100–200 mM CaCl2, 20°C
[3] = biological target: the molecule itself; assay: crystal structure; wild-type KtrAB with ADP, 8 Å diffraction dataset; molecular replacement searches and an averaged map only (low resolution model); crystals from 100 mM Hepes pH 7.5, 1 M NaCl, 10% PEG4000, 20°C

B1: binds [1]; binds [2].

B2: binds [1]; binds [3].

In the case of B3, the “stoichiometry N” value [2] is reported as 2.
